{
  "source": "patent US7906477",
  "key": {"Abz-GKAFRRLY′": {"system": "T1, Abz-GKAFRRLY′", "T1 sequence": "GKAFRRLY", "conditions": "for Relative hydrolysis rate: scale: relative"}, "[1]": {"system": "T2, ac-GKAFRR-L12ADT (SEQ ID NO:41)", "T2 sequence": "GKAFRRX", "conditions": "for Relative hydrolysis rate: scale: relative"}, "[2]": {"system": "T3, Y′GKAMRQ-Dap-FK′ (SEQ ID NO:39)", "T3 sequence": "XGKAMRQXFX"}, "[3]": {"system": "T4, Y′GKAFRRLGK′ (SEQ ID NO:21)", "T4 sequence": "XGKAFRRLGX"}, "[4]": {"system": "T5, Y′GKAKPR-Dap-FK′ (SEQ ID NO:37)", "T5 sequence": "XGKAKPRXFX"}, "[5]": {"system": "T6, Y′GKARAF-Dap-FK′ (SEQ ID NO:36)", "T6 sequence": "XGKARAFXFX"}, "[6]": {"system": "T7, Y′GSKGPFKL-Dap-K′ (SEQ ID NO:46)", "T7 sequence": "XGSKGPFKLXX"}, "[7]": {"system": "soluble non-arginine containing peptides"}, "GKAFR-AMC": {"system": "T8, GKAFR-AMC", "T8 sequence": "GKAFR"}, "[8]": {"system": "T9, Y′GSKGHFKL-Dap-F-K′ (SEQ ID NO:40)", "T9 sequence": "XGSKGHFKLXFX"}, "[9]": {"system": "T10, Y′GSKGHFKL-Dap-K′ (SEQ ID NO:45)", "T10 sequence": "XGSKGHFKLXX"}, "[10]": {"system": "T11, ac-GKAFRRLG (SEQ ID NO:43)", "T11 sequence": "GKAFRRLG"}, "[11]": {"system": "T12, Y′GSKGHFHL-Dap-K′ (SEQ ID NO:47)", "T12 sequence": "XGSKGHFHLXX"}, "[12]": {"system": "T13, Y′GKAFRLK′-PEGA (SEQ ID NO:52)", "T13 sequence": "XGKAFRLX"}, "[13]": {"system": "T14, Y′GKAFRR-Dap-FK′ (SEQ ID NO:38)", "T14 sequence": "XGKAFRRXFX"}},
  "data": [
    {"substance": "Cathepsin B", "values": [
      {"measurement": "hydrolysis by protease", "setting": "Abz-GKAFRRLY′", "value": "No appreciable hydrolysis of either substrate was observed following incubation with Cathepsin D or Cathepsin B"},
      {"measurement": "Relative hydrolysis rate", "setting": "Abz-GKAFRRLY′", "value": 1},
      {"measurement": "hydrolysis by protease", "setting": "[1]", "value": "No appreciable hydrolysis of either substrate was observed following incubation with Cathepsin D or Cathepsin B"},
      {"measurement": "Relative hydrolysis rate", "setting": "[1]", "value": 1}
    ]},
    {"substance": "Cathepsin D", "values": [
      {"measurement": "hydrolysis by protease", "setting": "Abz-GKAFRRLY′", "value": "No appreciable hydrolysis of either substrate was observed following incubation with Cathepsin D or Cathepsin B"},
      {"measurement": "Relative hydrolysis rate", "setting": "Abz-GKAFRRLY′", "value": 1},
      {"measurement": "hydrolysis by protease", "setting": "[1]", "value": "No appreciable hydrolysis of either substrate was observed following incubation with Cathepsin D or Cathepsin B"},
      {"measurement": "Relative hydrolysis rate", "setting": "[1]", "value": 1}
    ]},
    {"substance": "Plasmin", "values": [
      {"measurement": "rate of hydrolysis relative to hK2", "setting": "Abz-GKAFRRLY′", "value": "Plasmin had a more than 10-fold slower rate of hydrolysis of the peptide substrate than hK2"},
      {"measurement": "Relative hydrolysis rate", "setting": "Abz-GKAFRRLY′", "value": 36}
    ]},
    {"substance": "Urokinase", "values": [
      {"measurement": "hydrolysis by protease", "setting": "Abz-GKAFRRLY′", "value": "Urokinase showed low activity on the fluorescence quenched peptide substrate"},
      {"measurement": "Relative hydrolysis rate", "setting": "Abz-GKAFRRLY′", "value": 17},
      {"measurement": "Relative hydrolysis rate", "setting": "[1]", "value": 1}
    ]},
    {"substance": "human glandular kallikrein 2 (hK2), enzymatically active", "values": [
      {"measurement": "on-bead digestion with hK2 (fluorescence)", "setting": "[2]", "value": "reproduced fluorescence when these peptides were digested on-bead with hK2"},
      {"measurement": "time to digestion of the same amount (more than 50%) of peptide", "setting": "[2]", "value": "For the other peptides, digestion of the same amount of peptide took 19-29 minutes"},
      {"measurement": "hK2 hydrolysis rate (fluorescence)", "setting": "[3]", "value": "Substitution of Dap-F with Leu-Gly resulted in only a modest decrease in hydrolysis rate"},
      {"measurement": "on-bead digestion with hK2 (fluorescence)", "setting": "[4]", "value": "reproduced fluorescence when these peptides were digested on-bead with hK2"},
      {"measurement": "time to digestion of the same amount (more than 50%) of peptide", "setting": "[4]", "value": "For the other peptides, digestion of the same amount of peptide took 19-29 minutes"},
      {"measurement": "on-bead digestion with hK2 (fluorescence)", "setting": "[5]", "value": "reproduced fluorescence when these peptides were digested on-bead with hK2"},
      {"measurement": "time to digestion of the same amount (more than 50%) of peptide", "setting": "[5]", "value": "For the other peptides, digestion of the same amount of peptide took 19-29 minutes"},
      {"measurement": "digestion by hK2 in solution (fluorescence-quenched peptide)", "setting": "[6]", "value": "none of these three arginine free peptides were digested by hK2, even after prolonged incubation"},
      {"measurement": "hydrolysis by hK2 in solution", "setting": "[7]", "value": "the soluble non-arginine containing peptides were not hydrolyzed by hK2"},
      {"measurement": "Relative hydrolysis rate", "setting": "Abz-GKAFRRLY′", "value": 353},
      {"measurement": "Km", "setting": "GKAFR-AMC", "value": "Km 146 µM"},
      {"measurement": "kcat", "setting": "GKAFR-AMC", "value": "kcat 0.13 sec^-1"},
      {"measurement": "kcat/Km", "setting": "GKAFR-AMC", "value": "kcat/Km 895 sec^-1 M^-1"},
      {"measurement": "hK2 mediated hydrolysis (fluorescence, 250 µM substrate, 8 µg/ml hK2)", "setting": "[8]", "value": "did not show any hydrolysis"},
      {"measurement": "hydrolysis by hK2 (4 µg/ml), HPLC", "setting": "[1]", "value": "the hK2 prodrug is rapidly cleaved by hK2"},
      {"measurement": "percent of starting prodrug hydrolyzed after 1 hour (4 µg/ml hK2, HPLC)", "setting": "[1]", "value": "after 1 hour, more than 80% of the starting prodrug was hydrolyzed"},
      {"measurement": "time to 50% hydrolysis (4 µg/ml hK2, HPLC)", "setting": "[1]", "value": "In 25 min, 50% was hydrolyzed"},
      {"measurement": "Relative hydrolysis rate", "setting": "[1]", "value": 125},
      {"measurement": "digestion by hK2 in solution (fluorescence-quenched peptide)", "setting": "[9]", "value": "none of these three arginine free peptides were digested by hK2, even after prolonged incubation"},
      {"measurement": "hydrolysis by hK2 (HPLC)", "setting": "[10]", "value": "this peptide was rapidly hydrolyzed by hK2"},
      {"measurement": "digestion by hK2 in solution (fluorescence-quenched peptide)", "setting": "[11]", "value": "none of these three arginine free peptides were digested by hK2, even after prolonged incubation"},
      {"measurement": "incubation time until fluorescent beads (on-bead digestion, 4 µg/ml hK2)", "setting": "[12]", "value": "digested to yield fluorescent beads after 10-12 hours of incubation with 4 µg/ml hK2"},
      {"measurement": "Michaelis-Menten constant (Km)", "setting": "[13]", "value": "The Michaelis-Menten constant (Km) was determined at 26.5 µM"},
      {"measurement": "hK2 mediated hydrolysis (fluorescence, 250 µM substrate, 8 µg/ml hK2)", "setting": "[13]", "value": "by far exceeded all other substrates"},
      {"measurement": "kcat", "setting": "[13]", "value": "the kcat at 1.09 sec^-1"},
      {"measurement": "kcat/Km ratio", "setting": "[13]", "value": "the kcat/Km ratio was 41,132 sec^-1 M^-1"},
      {"measurement": "on-bead digestion with hK2 (fluorescence)", "setting": "[13]", "value": "reproduced fluorescence when these peptides were digested on-bead with hK2"},
      {"measurement": "time to maximum digestion (70-75%)", "setting": "[13]", "value": "a value that was reached with Y′GKAFRR-Dap-F-K′ (SEQ ID NO:38) in less than 15 minutes"},
      {"measurement": "time to more than 50% digestion (500 µM peptide, 4 µg/ml hK2)", "setting": "[13]", "value": "In less than five minutes, more than 50% of the peptide was digested"}
    ]}
  ]
}
